Reference: patent US20140087993A1 (TUFTS MEDICAL CENTER, published 2014)
* marks the point of attachment. Palmitoyl = CCCCCCCCCCCCCCCC(=O)*

B1: P2pal-14GQ (peptide)
peptide: Palmitoyl-GDENSEKKRKQAIK-NH2
SMILES: CCCCCCCCCCCCCCCC(=O)NCC(=O)N[C@@H](CC(=O)O)C(=O)N[C@@H](CCC(=O)O)C(=O)N[C@@H](CC(N)=O)C(=O)N[C@@H](CO)C(=O)N[C@@H](CCC(=O)O)C(=O)N[C@@H](CCCCN)C(=O)N[C@@H](CCCCN)C(=O)N[C@@H](CCCNC(=N)N)C(=O)N[C@@H](CCCCN)C(=O)N[C@@H](CCC(N)=O)C(=O)N[C@@H](C)C(=O)N[C@H](C(=O)N[C@@H](CCCCN)C(N)=O)[C@@H](C)CC
B2: P1pal-10S (peptide)
peptide: Palmitoyl-NRSKKSSALF-NH2
SMILES: CCCCCCCCCCCCCCCC(=O)N[C@@H](CC(N)=O)C(=O)N[C@@H](CCCNC(=N)N)C(=O)N[C@@H](CO)C(=O)N[C@@H](CCCCN)C(=O)N[C@@H](CCCCN)C(=O)N[C@@H](CO)C(=O)N[C@@H](CO)C(=O)N[C@@H](C)C(=O)N[C@@H](CC(C)C)C(=O)N[C@@H](Cc1ccccc1)C(N)=O
B3: P1pal-i1-11 (peptide)
peptide: Palmitoyl-ILKMKVKKPAV-NH2
SMILES: CCCCCCCCCCCCCCCC(=O)N[C@H](C(=O)N[C@@H](CC(C)C)C(=O)N[C@@H](CCCCN)C(=O)N[C@@H](CCSC)C(=O)N[C@@H](CCCCN)C(=O)N[C@H](C(=O)N[C@@H](CCCCN)C(=O)N[C@@H](CCCCN)C(=O)N1CCC[C@H]1C(=O)N[C@@H](C)C(=O)N[C@H](C(N)=O)C(C)C)C(C)C)[C@@H](C)CC
B4: P2pal-18S pepducin (peptide)
peptide: Palmitoyl-RSSAMDENSEKKRKSAIK-NH2
SMILES: CCCCCCCCCCCCCCCC(=O)N[C@@H](CCCNC(=N)N)C(=O)N[C@@H](CO)C(=O)N[C@@H](CO)C(=O)N[C@@H](C)C(=O)N[C@@H](CCSC)C(=O)N[C@@H](CC(=O)O)C(=O)N[C@@H](CCC(=O)O)C(=O)N[C@@H](CC(N)=O)C(=O)N[C@@H](CO)C(=O)N[C@@H](CCC(=O)O)C(=O)N[C@@H](CCCCN)C(=O)N[C@@H](CCCCN)C(=O)N[C@@H](CCCNC(=N)N)C(=O)N[C@@H](CCCCN)C(=O)N[C@@H](CO)C(=O)N[C@@H](C)C(=O)N[C@H](C(=O)N[C@@H](CCCCN)C(N)=O)[C@@H](C)CC
B5: P2pal-18Q (peptide)
peptide: Palmitoyl-RSSAMDENSEKKRKQAIK-NH2
SMILES: CCCCCCCCCCCCCCCC(=O)N[C@@H](CCCNC(=N)N)C(=O)N[C@@H](CO)C(=O)N[C@@H](CO)C(=O)N[C@@H](C)C(=O)N[C@@H](CCSC)C(=O)N[C@@H](CC(=O)O)C(=O)N[C@@H](CCC(=O)O)C(=O)N[C@@H](CC(N)=O)C(=O)N[C@@H](CO)C(=O)N[C@@H](CCC(=O)O)C(=O)N[C@@H](CCCCN)C(=O)N[C@@H](CCCCN)C(=O)N[C@@H](CCCNC(=N)N)C(=O)N[C@@H](CCCCN)C(=O)N[C@@H](CCC(N)=O)C(=O)N[C@@H](C)C(=O)N[C@H](C(=O)N[C@@H](CCCCN)C(N)=O)[C@@H](C)CC

Key:
[1] = target: protease-activated receptor-2 (PAR2), wild type, on cells (human, UniProt P55085 37-397); test: cell-based or functional assay
[2] = target: T1, protease-activated receptor 1 (PAR1), on cells (human, UniProt P25116 42-425); test: cell-based or functional assay
T1 sequence (looked up): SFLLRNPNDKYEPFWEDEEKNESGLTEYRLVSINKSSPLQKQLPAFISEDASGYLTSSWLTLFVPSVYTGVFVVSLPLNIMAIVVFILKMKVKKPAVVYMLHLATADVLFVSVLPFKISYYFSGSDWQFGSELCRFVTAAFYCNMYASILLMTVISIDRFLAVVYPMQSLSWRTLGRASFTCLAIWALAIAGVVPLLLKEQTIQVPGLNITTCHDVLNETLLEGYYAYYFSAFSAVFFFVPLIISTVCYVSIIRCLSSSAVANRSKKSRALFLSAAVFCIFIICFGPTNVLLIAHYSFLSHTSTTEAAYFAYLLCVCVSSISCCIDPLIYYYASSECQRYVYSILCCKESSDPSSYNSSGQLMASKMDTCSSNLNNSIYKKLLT

| Binder | IC50, Ca++ mobilization by SFLLRN in human platelets [2] | IC50, thrombin-induced ERK1/2 phosphorylation in A549 cells [2] | calcium flux in SW620 cells, antagonist activity against SLIGRL [1] | other results |
| --- | --- | --- | --- | --- |
| B1 | – | – | – | IC50, calcium flux induced by 30 µM SLIGRL in SW620 cells [1]: 8000 µM |
| Palmitoyl-KKSRALF-NH2 [P1pal-7] | 0.55 µM | 0.2 µM | – | – |
| B2 | 0.7 µM | 0.8 µM | – | – |
| B3 | 1.3 µM | – | – | – |
| B4 | – | – | 77 % inhibition | – |
| B5 | – | – | 29 % inhibition | – |
